Results on 63 sequences are retold here after the supplement of paper PMC7877785.

A short description of the data set: self-splicing fitness, log relative to wild type (ln ratio); higher = more splicing; Tetrahymena group I intron in knt gene, E. coli kanamycin selection, DiMSum; sequences stand for … in CUCUCU…GGAGGGAAAAGUUAUCAGGCAUGCACCUGGUAGCUAGUCUUUAAACCAAUAGAUUGCAUCGGUUUAAAAGGCAAGACCGUCAAAUUGCGGGAAAGGGGUCAACAGCCGUUCAGUACCAAGUCUCAGGGGAAACUUUGAGAUGGCCUUGCAAAGGGUAUGGUAAUAAGCUGACGGACAUGGUCCUAACCACGCAGCCAAGUCCUAAGUCAACAGAUCUUCUGUUGAUAUGGAUGCAGUUCACAGACUAAAUGUCGGUCGGGGAAGAUGUAUUCUUCUCAUAAGAUAUAGUCGGACCUCUCCUUAAUGGGAGCUAGCGGAUGAAGUGAUGCAACACUGGAGCCGCUGGGAACUAAUUUGUAUGCGAAAGUAUAUUGAUUAGUUUUGGAGUACUCGUGGUCG
The gist of the method:
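Colonies from six replicate transformations of E. coli BL21(DE3) were pooled and amplicon-sequenced on an Illumina HiSeq 2500. The library placed an intron with all eight P1ex-region nucleotides randomised inside the knt kanamycin-resistance gene on pET-22b(+), and cells grew overnight at 37°C or 30°C on LB agar with or without 25 μg/mL kanamycin (plus 100 μg/mL carbenicillin, 50 μM IPTG, 0.2% rhamnose). Fitness is the DiMSum error-weighted combination of wild-type-normalised replicate fold changes, kanamycin versus none.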

± gives the uncertainty stated by the source.

As for UCUCAGCAAUAUUACGUUCU, the “self-splicing fitness (ln)” value is -3.49 ± 0.16 (30 °C) and -1.86 ± 0.17 (37 °C).

On to UCUGAGCAAUAUUACGAGCC, for which the “self-splicing fitness (ln)” value (30 °C) was -1.65 ± 0.22.

Regarding UCUGAGCAAUAUUACGCACG, the “self-splicing fitness (ln)” value (30 °C) was -3.08 ± 0.33.

Consider UCUGAGCAAUAUUACGCAGC, for which, for the setting “30 °C”, the “self-splicing fitness (ln)” value is -2.75 ± 0.42.

Take UCUGAGCAAUAUUACGCCAC: under “30 °C”, the “self-splicing fitness (ln)” value was -2.41 ± 0.49.

On to UCUGAGCAAUAUUACGCCUG, for which the “self-splicing fitness (ln)” value reads like this: (30 °C) -3.02 ± 0.18; (37 °C) -2.18 ± 0.2.

For UCUGAGCAAUAUUACGCGAA, the “self-splicing fitness (ln)” value (37 °C) is -1.8 ± 0.25.

As for UCUGAGCAAUAUUACGCGAG, the “self-splicing fitness (ln)” value by setting is: (30 °C) -3.09 ± 0.2; (37 °C) -2.28 ± 0.24.

As to UCUGAGCAAUAUUACGCUGU, the “self-splicing fitness (ln)” value is -2 ± 0.23 (30 °C) and -1.07 ± 0.19 (37 °C).

For the sequence UCUGAGCAAUAUUACGGAAC, the “self-splicing fitness (ln)” value reads like this: (30 °C) -4.04 ± 0.39; (37 °C) -3.05 ± 0.28.

Consider UCUGAGCAAUAUUACGGAAG, for which the “self-splicing fitness (ln)” value is -4.27 ± 0.2 (30 °C) and -3.07 ± 0.23 (37 °C).

Regarding UCUGAGCAAUAUUACGGCAG, the “self-splicing fitness (ln)” value is -1.8 ± 0.097 (30 °C) and -0.992 ± 0.12 (37 °C).

Turning to UCUGAGCAAUAUUACGGCGC, the “self-splicing fitness (ln)” value was -3.06 ± 0.29 (30 °C) and -2.02 ± 0.32 (37 °C).

On to UCUGAGCAAUAUUACGGUCU, for which the “self-splicing fitness (ln)” value runs as follows: (30 °C) -2.46 ± 0.21; (37 °C) -2.96 ± 0.37.

With UCUGAGCAAUAUUACGGUGC, the “self-splicing fitness (ln)” value is, setting by setting: (30 °C) -4.39 ± 0.39; (37 °C) -2.45 ± 0.25.

For the sequence UCUGAGCAAUAUUACGUAAG, the “self-splicing fitness (ln)” value is -0.697 ± 0.11 (30 °C) and -0.863 ± 0.19 (37 °C).

Consider UCUGAGCAAUAUUACGUAUU, for which the “self-splicing fitness (ln)” value by setting is: (30 °C) -4.55 ± 0.25; (37 °C) -3.08 ± 0.25.

As for UCUGAGCAAUAUUACGUCGU, the “self-splicing fitness (ln)” value by setting is: (30 °C) -3.79 ± 0.29; (37 °C) -1.91 ± 0.25.

On to UCUUAGCAAUAUUACGACAC, for which the “self-splicing fitness (ln)” value is, setting by setting: (30 °C) -2.77 ± 0.46; (37 °C) -1.65 ± 0.22.

As for UCUUAGCAAUAUUACGACCA, under “30 °C”, the “self-splicing fitness (ln)” value is -1.32 ± 0.48.

In the case of UCUUAGCAAUAUUACGACGC, the “self-splicing fitness (ln)” value by setting is: (30 °C) -2.07 ± 0.28; (37 °C) -1.02 ± 0.23.

Consider UCUUAGCAAUAUUACGACUC, for which the “self-splicing fitness (ln)” value (37 °C) is -1.03 ± 0.5.

For the sequence UCUUAGCAAUAUUACGCACG, the “self-splicing fitness (ln)” value by setting is: (30 °C) -1.56 ± 0.29; (37 °C) -1.47 ± 0.34.

Take UCUUAGCAAUAUUACGGCCA: the “self-splicing fitness (ln)” value (30 °C) is -2.31 ± 0.38.

Consider UCUUAGCAAUAUUACGGGGA, for which the “self-splicing fitness (ln)” value reads like this: (30 °C) -1.1 ± 0.15; (37 °C) -1 ± 0.16.

UCUUAGCAAUAUUACGGUGG: the “self-splicing fitness (ln)” value (30 °C) was -1.18 ± 0.13 and the “self-splicing fitness (ln)” value (37 °C) is -1.2 ± 0.16.

Consider UCUUAGCAAUAUUACGUUCU, for which the “self-splicing fitness (ln)” value (37 °C) was -2.75 ± 0.21.

As to UGAAAGCAAUAUUACGAAAU, the “self-splicing fitness (ln)” value is -3.67 ± 0.2 (30 °C) and -1.95 ± 0.18 (37 °C).

Consider UGAAAGCAAUAUUACGACAG, for which the “self-splicing fitness (ln)” value is -0.875 ± 0.1 (30 °C) and -0.652 ± 0.13 (37 °C).

Regarding UGAAAGCAAUAUUACGACAU, the “self-splicing fitness (ln)” value reads like this: (30 °C) -1.26 ± 0.013; (37 °C) -0.435 ± 0.032.

Consider UGAAAGCAAUAUUACGAGAA, for which the “self-splicing fitness (ln)” value runs as follows: (30 °C) -2.32 ± 0.23; (37 °C) -1.22 ± 0.15.

In the case of UGAAAGCAAUAUUACGAGGC, the “self-splicing fitness (ln)” value is -3.66 ± 0.28 (30 °C) and -2.36 ± 0.21 (37 °C).

With UGAAAGCAAUAUUACGAUAC, the “self-splicing fitness (ln)” value reads like this: (30 °C) -2.87 ± 0.19; (37 °C) -2.8 ± 0.33.

On to UGAAAGCAAUAUUACGAUGA, for which the “self-splicing fitness (ln)” value is, setting by setting: (30 °C) -0.217 ± 0.088; (37 °C) -0.415 ± 0.1.

On to UGAAAGCAAUAUUACGAUGU, for which the “self-splicing fitness (ln)” value (30 °C) is -3.04 ± 0.2 and the “self-splicing fitness (ln)” value (37 °C) is -1.81 ± 0.21.

Turning to UGAAAGCAAUAUUACGAUUU, the “self-splicing fitness (ln)” value reads like this: (30 °C) -1.08 ± 0.06; (37 °C) -0.463 ± 0.077.

Regarding UGAAAGCAAUAUUACGCACG, the “self-splicing fitness (ln)” value reads like this: (30 °C) -1.4 ± 0.11; (37 °C) 0.111 ± 0.13.

Consider UGAAAGCAAUAUUACGCAGG, for which the “self-splicing fitness (ln)” value is, setting by setting: (30 °C) -2.65 ± 0.17; (37 °C) -1.42 ± 0.2.

UGAAAGCAAUAUUACGCCCU: the “self-splicing fitness (ln)” value (30 °C) was -0.195 ± 0.11 and the “self-splicing fitness (ln)” value (37 °C) is 0.295 ± 0.15.

Regarding UGAAAGCAAUAUUACGGCUG, the “self-splicing fitness (ln)” value (30 °C) amounted to 0.281 ± 0.088 and the “self-splicing fitness (ln)” value (37 °C) is 0.316 ± 0.11.

As for UGAAAGCAAUAUUACGGGAU, the “self-splicing fitness (ln)” value is -2.6 ± 0.18 (30 °C) and -3.48 ± 0.39 (37 °C).

As for UGAAAGCAAUAUUACGGGUC, the “self-splicing fitness (ln)” value (37 °C) was -2.71 ± 0.25.

On to UGAAAGCAAUAUUACGUACA, for which the “self-splicing fitness (ln)” value is -0.776 ± 0.044 (30 °C) and 0.0429 ± 0.066 (37 °C).

In the case of UGAAAGCAAUAUUACGUACC, the “self-splicing fitness (ln)” value is, setting by setting: (30 °C) -1.36 ± 0.12; (37 °C) -1.61 ± 0.17.

On to UGAAAGCAAUAUUACGUAUA, for which the “self-splicing fitness (ln)” value reads like this: (30 °C) -1.56 ± 0.13; (37 °C) -1.28 ± 0.12.

For UGAAAGCAAUAUUACGUCCA, the “self-splicing fitness (ln)” value was 0.114 ± 0.088 (30 °C) and -0.497 ± 0.11 (37 °C).

For UGAAAGCAAUAUUACGUGAG, the “self-splicing fitness (ln)” value is, setting by setting: (30 °C) -0.356 ± 0.06; (37 °C) -0.158 ± 0.084.

As for UGAAAGCAAUAUUACGUGCU, the “self-splicing fitness (ln)” value is, setting by setting: (30 °C) -2.79 ± 0.12; (37 °C) -1.32 ± 0.12.

Consider UGAAAGCAAUAUUACGUUAC, for which the “self-splicing fitness (ln)” value is, setting by setting: (30 °C) -3.44 ± 0.25; (37 °C) -2.35 ± 0.21.

Consider UGAAAGCAAUAUUACGUUUC, for which the “self-splicing fitness (ln)” value reads like this: (30 °C) -3.14 ± 0.34; (37 °C) -2.03 ± 0.28.

Take UGACAGCAAUAUUACGAAGC: the “self-splicing fitness (ln)” value is -3.56 ± 0.37 (30 °C) and -3.61 ± 0.39 (37 °C).

As to UGACAGCAAUAUUACGAAUU, the “self-splicing fitness (ln)” value is -2.9 ± 0.2 (30 °C) and -1.53 ± 0.21 (37 °C).

As to UGACAGCAAUAUUACGACUU, the “self-splicing fitness (ln)” value is -0.452 ± 0.068 (30 °C) and 0.389 ± 0.091 (37 °C).

Turning to UGACAGCAAUAUUACGAGCG, the “self-splicing fitness (ln)” value (30 °C) is -0.264 ± 0.067 and the “self-splicing fitness (ln)” value (37 °C) is -0.0667 ± 0.079.

As for UGACAGCAAUAUUACGAGUU, the “self-splicing fitness (ln)” value runs as follows: (30 °C) -3.89 ± 0.2; (37 °C) -2.86 ± 0.19.

UGACAGCAAUAUUACGAUAC: the “self-splicing fitness (ln)” value is, setting by setting: (30 °C) -3.36 ± 0.22; (37 °C) -1.61 ± 0.19.

Turning to UGACAGCAAUAUUACGAUCG, the “self-splicing fitness (ln)” value worked out at 0.0362 ± 0.077 (30 °C) and 0.761 ± 0.1 (37 °C).

Turning to UGACAGCAAUAUUACGAUUA, the “self-splicing fitness (ln)” value was -0.338 ± 0.059 (30 °C) and 0.419 ± 0.066 (37 °C).

With UGACAGCAAUAUUACGCACU, the “self-splicing fitness (ln)” value is, setting by setting: (30 °C) 0.279 ± 0.051; (37 °C) -0.101 ± 0.059.

Consider UGACAGCAAUAUUACGCAUC, for which the “self-splicing fitness (ln)” value is, setting by setting: (30 °C) -4 ± 0.27; (37 °C) -1.28 ± 0.2.

Take UGACAGCAAUAUUACGCCCC: the “self-splicing fitness (ln)” value reads like this: (30 °C) -0.414 ± 0.17; (37 °C) -0.391 ± 0.26.

Turning to UGACAGCAAUAUUACGCCGU, the “self-splicing fitness (ln)” value reads like this: (30 °C) -2.54 ± 0.14; (37 °C) -1.85 ± 0.15.

As to UGACAGCAAUAUUACGCGCU, the “self-splicing fitness (ln)” value by setting is: (30 °C) -0.554 ± 0.086; (37 °C) -0.657 ± 0.099.
